# Assay results from patent US20240269235A1 (Gilead, published 2024).
# T1: trimeric murine IL-2 receptor (IL-2Rα, IL-2Rβ, and IL-2Rγ) on CTLL-2 cells (murine, UniProt P01590 22-268; P16297 27-539; P34902 23-369)
# T1 sequence (looked up) 1: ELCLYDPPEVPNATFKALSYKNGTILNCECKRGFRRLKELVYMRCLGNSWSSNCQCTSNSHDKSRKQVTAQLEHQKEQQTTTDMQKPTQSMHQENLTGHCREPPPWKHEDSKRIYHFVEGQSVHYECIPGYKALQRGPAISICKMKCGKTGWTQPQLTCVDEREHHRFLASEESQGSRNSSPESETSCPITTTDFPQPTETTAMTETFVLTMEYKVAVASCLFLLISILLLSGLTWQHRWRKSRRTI
# T1 sequence (looked up) 2: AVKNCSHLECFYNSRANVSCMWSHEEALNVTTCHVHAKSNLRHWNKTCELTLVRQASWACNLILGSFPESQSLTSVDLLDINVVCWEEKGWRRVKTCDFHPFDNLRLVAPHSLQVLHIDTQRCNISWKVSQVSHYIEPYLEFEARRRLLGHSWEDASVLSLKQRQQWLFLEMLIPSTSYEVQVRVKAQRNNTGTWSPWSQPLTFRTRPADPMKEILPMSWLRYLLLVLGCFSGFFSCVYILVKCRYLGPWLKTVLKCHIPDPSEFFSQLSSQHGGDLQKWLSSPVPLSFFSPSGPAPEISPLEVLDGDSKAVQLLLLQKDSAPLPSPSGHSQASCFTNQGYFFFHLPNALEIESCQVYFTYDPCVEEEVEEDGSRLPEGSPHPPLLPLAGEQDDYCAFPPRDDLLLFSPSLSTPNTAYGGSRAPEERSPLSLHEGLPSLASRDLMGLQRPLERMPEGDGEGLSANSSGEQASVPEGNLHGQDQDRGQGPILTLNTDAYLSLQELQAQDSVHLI
# T1 sequence (looked up) 3: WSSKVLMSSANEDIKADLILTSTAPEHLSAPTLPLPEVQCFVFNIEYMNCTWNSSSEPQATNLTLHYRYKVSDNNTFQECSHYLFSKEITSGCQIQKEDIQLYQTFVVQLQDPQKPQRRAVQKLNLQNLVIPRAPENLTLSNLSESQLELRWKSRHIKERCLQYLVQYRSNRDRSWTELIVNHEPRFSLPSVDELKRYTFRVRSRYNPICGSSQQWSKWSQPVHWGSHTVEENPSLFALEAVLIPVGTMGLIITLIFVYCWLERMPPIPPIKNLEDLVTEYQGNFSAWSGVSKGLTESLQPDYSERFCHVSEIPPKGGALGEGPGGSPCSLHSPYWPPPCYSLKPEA
# T2: human IL-2Rα on Treg cells (CD3+, CD4+, CD25hi, FoxP3+) of human PBMC (human, UniProt P01589 22-272)
# T2 sequence (looked up): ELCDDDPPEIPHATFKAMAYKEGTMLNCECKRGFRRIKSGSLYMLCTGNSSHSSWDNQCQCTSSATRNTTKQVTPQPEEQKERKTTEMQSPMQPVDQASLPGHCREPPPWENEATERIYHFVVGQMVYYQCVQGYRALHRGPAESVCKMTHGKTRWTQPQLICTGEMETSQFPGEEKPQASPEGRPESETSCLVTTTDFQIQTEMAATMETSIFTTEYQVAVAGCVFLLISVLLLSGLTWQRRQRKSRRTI
# T3: IL-2Rα (recombinant IL-2 receptor α, R&D Systems Cat #: 223-2A/CF), biotinylated (human, UniProt P01589 22-213, limits assumed, biotinylated using sulfo-NHS-LC-LC-Biotin)
# T3 construct: Bought reagent; also used here as the IL-2Rα partner of the in-silico analysis of PDB 2B5I (another construct); also called IL-2RA; CD25
# T3 sequence (looked up): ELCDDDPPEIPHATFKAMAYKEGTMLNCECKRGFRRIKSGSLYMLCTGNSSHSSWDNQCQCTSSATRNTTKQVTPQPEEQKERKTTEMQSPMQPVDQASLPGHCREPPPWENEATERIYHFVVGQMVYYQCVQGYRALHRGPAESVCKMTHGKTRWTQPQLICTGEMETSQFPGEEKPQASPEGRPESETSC
# T4: IL-2Rβ (recombinant IL-2 receptor β, R&D Systems Cat #:224-2B-025/CF), biotinylated (UniProt P14784 27-239, limits assumed, biotinylated using sulfo-NHS-LC-LC-Biotin)
# T4 construct: Bought reagent; also called IL-2RB; CD122
# T4 sequence (looked up): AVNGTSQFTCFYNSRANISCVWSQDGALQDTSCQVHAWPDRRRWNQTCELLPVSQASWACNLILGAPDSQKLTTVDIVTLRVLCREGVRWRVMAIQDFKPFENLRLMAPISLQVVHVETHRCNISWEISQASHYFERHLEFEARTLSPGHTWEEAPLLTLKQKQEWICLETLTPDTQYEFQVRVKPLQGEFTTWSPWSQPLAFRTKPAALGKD
# Tests used:
# [1] = molecular target: T1, trimeric murine IL-2 receptor (IL-2Rα, …); assay: cell-based or functional assay
# [2] = molecular target: T2, human IL-2Rα on Treg cells (CD3+, CD4+, …); assay: cell-based or functional assay
# [3] = molecular target: T3, IL-2Rα (recombinant IL-2 receptor α, …); assay: SPR (Biacore), C1 or CM5 chip, biotinylated receptor on neutravidin
# Excerpt: (§1) Data for binding of Fc-IL-2 variant fusion proteins to IL-2Rα, IL-2Rβ and IL-2Rβγ heterodimer were collected on a Biacore platform using either C1 or CM5 chips. Neutravidin was immobilized using standard amine coupling methods and used to capture biotinylated receptors. Commercially sourced IL-2Rα (R&D Systems Cat #: 223-2A/CF) and IL-2Rβ receptors (R&D Systems Cat #:224-2B-025/CF) were biotinylated using sulfo-NHS-LC-LC-Biotin, desalted, and then captured on the neutravidin surfaces. […] Distinct purification tags were appended to the C-terminus of each chain. A FLAG epitope tag ([…]; SEQ ID NO: 257) was added at the C-terminus of IL-2Rβ subunit, followed by C-terminal Hiss tag ([…]; SEQ ID NO: 258). An AviTag™ ([…]; SEQ ID NO: 259) motif on the IL-2Rγ subunit allowed for site-specific biotinylation of the heterodimer.
# (§2) Fc IL 2 fusion protein variants, Fc protein, and Proleukin were injected at various concentrations over these surfaces. Kinetic data obtained from these injections was used to extract kₒₙ and koff to calculate KD (KD=koff/kₒₙ). Experiments were run at 25° C. in HBS-EP+ running buffer (10 mM HEPES, 150 mM NaCl, 3 mM EDTA, 0.05% Tween20, pH 7.4 with 0.1 mg/ml BSA). Data shown in Table 5 for Fc IL-2 fusion protein variants binding to the indicated IL-2R surfaces were derived from the global fitting of data obtained from 2-5 independent surfaces.
# [4] = molecular target: T4, IL-2Rβ (recombinant IL-2 receptor β, …); assay: as above
# Excerpt: as §1, §2
# [5] = molecular target: T5, IL-2Rβγ heterodimer, custom biotinylated Fc fusion protein (human IL-2Rβ 27-240-Fc-FLAG / human IL-2Rγ … (human, site-specific biotinylation at the AviTag)); assay: as above
# T5 construct: Extracellular regions fused to IgG1 knob-in-hole Fc subunits with tags; also called IL-2 receptor βγ heterodimer; Fc-IL-2Rβγ
# T5 sequence (chain, as listed by the source limits assumed): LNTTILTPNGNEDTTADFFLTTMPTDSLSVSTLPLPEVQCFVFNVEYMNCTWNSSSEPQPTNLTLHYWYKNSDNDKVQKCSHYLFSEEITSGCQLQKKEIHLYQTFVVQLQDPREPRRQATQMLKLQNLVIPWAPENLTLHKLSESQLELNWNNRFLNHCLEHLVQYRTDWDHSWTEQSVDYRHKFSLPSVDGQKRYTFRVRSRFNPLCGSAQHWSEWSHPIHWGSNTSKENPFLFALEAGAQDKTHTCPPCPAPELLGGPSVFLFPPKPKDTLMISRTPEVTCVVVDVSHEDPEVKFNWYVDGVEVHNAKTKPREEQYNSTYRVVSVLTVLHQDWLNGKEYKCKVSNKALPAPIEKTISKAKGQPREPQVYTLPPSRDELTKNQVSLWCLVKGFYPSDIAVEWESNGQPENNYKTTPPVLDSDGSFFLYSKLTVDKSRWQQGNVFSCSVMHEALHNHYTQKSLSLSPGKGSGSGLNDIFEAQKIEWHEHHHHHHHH
# Excerpt: as §1, §2
Binder,"STAT5 activation of CTLL-2 cells, EC50 [1]","Treg EC50, STAT5 activation (PBMC STAT5 assay) [2]",Kd [3],Kd [4],binding result [3],binding result [4],binding result [5]
"Fc-IL-2v heterodimer 88.46 (hIL-2v_Δ1-5_Y45A_C125S) (Fc fusion, hIgG4 knob-in-hole Fc heterodimer, one IL-2v on the knob chain) chain 1: ESKYGPPCPPCPAPEAAGGPSVFLFPPKPKDTLMISRTPEVTCVVVDVSQEDPEVQFNWYVDGVEVHNAKTKPREEQFNSTYRVVSVLTVLHQDWLNGKEYKCKVSNKGLPSSIEKTISKAKGQPREPQVYTLPPSQEEMTKNQVSLWCLVKGFYPSDIAVEWESNGQPENNYKTTPPVLDSDGSFFLYSRLTVDKSRWQEGNVFSCSVMHEALHNHYTQKSLSLSLGGGGGSGGGGSGGGGSGGGGSSTKKTQLQLEHLLLDLQMILNGINNYKNPKLTRMLTFKFAMPKKATELKHLQCLEEELKPLEEVLNLAQSKNFHLRPRDLISNINVIVLELKGSETTFMCEYADETATIVEFLNRWITFSQSIISTLT chain 2: ESKYGPPCPPCPAPEAAGGPSVFLFPPKPKDTLMISRTPEVTCVVVDVSQEDPEVQFNWYVDGVEVHNAKTKPREEQFNSTYRVVSVLTVLHQDWLNGKEYKCKVSNKGLPSSIEKTISKAKGQPREPQVYTLPPSQEEMTKNQVSLSCAVKGFYPSDIAVEWESNGQPENNYKTTPPVLDSDGSFFLVSRLTVDKSRWQEGNVFSCSVMHEALHNRFTQKSLSLSLGK",0.1 nM,< 1 pM,120 nM,8 µM,,,
"Fc-IL-2v heterodimer 93.46 (hIL-2v_Δ1-5_Q74G_C125S) (Fc fusion, hIgG4 knob-in-hole Fc heterodimer, one IL-2v on the knob chain) chain 1: ESKYGPPCPPCPAPEAAGGPSVFLFPPKPKDTLMISRTPEVTCVVVDVSQEDPEVQFNWYVDGVEVHNAKTKPREEQFNSTYRVVSVLTVLHQDWLNGKEYKCKVSNKGLPSSIEKTISKAKGQPREPQVYTLPPSQEEMTKNQVSLWCLVKGFYPSDIAVEWESNGQPENNYKTTPPVLDSDGSFFLYSRLTVDKSRWQEGNVFSCSVMHEALHNHYTQKSLSLSLGGGGGSGGGGSGGGGSGGGGSSTKKTQLQLEHLLLDLQMILNGINNYKNPKLTRMLTFKFYMPKKATELKHLQCLEEELKPLEEVLNLAGSKNFHLRPRDLISNINVIVLELKGSETTFMCEYADETATIVEFLNRWITFSQSIISTLT chain 2: ESKYGPPCPPCPAPEAAGGPSVFLFPPKPKDTLMISRTPEVTCVVVDVSQEDPEVQFNWYVDGVEVHNAKTKPREEQFNSTYRVVSVLTVLHQDWLNGKEYKCKVSNKGLPSSIEKTISKAKGQPREPQVYTLPPSQEEMTKNQVSLSCAVKGFYPSDIAVEWESNGQPENNYKTTPPVLDSDGSFFLVSRLTVDKSRWQEGNVFSCSVMHEALHNRFTQKSLSLSLGK",0.002 nM,< 1 pM,21 nM,8.2 µM,,,
"Fc-IL-2v heterodimer 91.46 (hIL-2v_Δ1-5_E68A_C125S) (Fc fusion, hIgG4 knob-in-hole Fc heterodimer, one IL-2v on the knob chain) chain 1: ESKYGPPCPPCPAPEAAGGPSVFLFPPKPKDTLMISRTPEVTCVVVDVSQEDPEVQFNWYVDGVEVHNAKTKPREEQFNSTYRVVSVLTVLHQDWLNGKEYKCKVSNKGLPSSIEKTISKAKGQPREPQVYTLPPSQEEMTKNQVSLWCLVKGFYPSDIAVEWESNGQPENNYKTTPPVLDSDGSFFLYSRLTVDKSRWQEGNVFSCSVMHEALHNHYTQKSLSLSLGGGGGSGGGGSGGGGSGGGGSSTKKTQLQLEHLLLDLQMILNGINNYKNPKLTRMLTFKFYMPKKATELKHLQCLEEELKPLEAVLNLAQSKNFHLRPRDLISNINVIVLELKGSETTFMCEYADETATIVEFLNRWITFSQSIISTLT chain 2: ESKYGPPCPPCPAPEAAGGPSVFLFPPKPKDTLMISRTPEVTCVVVDVSQEDPEVQFNWYVDGVEVHNAKTKPREEQFNSTYRVVSVLTVLHQDWLNGKEYKCKVSNKGLPSSIEKTISKAKGQPREPQVYTLPPSQEEMTKNQVSLSCAVKGFYPSDIAVEWESNGQPENNYKTTPPVLDSDGSFFLVSRLTVDKSRWQEGNVFSCSVMHEALHNRFTQKSLSLSLGK",0.001 nM,< 1 pM,32 nM,5.9 µM,,,

# The remaining lines, values ahead:
"STAT5 activation of CTLL-2 cells, EC50 [1]","Treg EC50, STAT5 activation (PBMC STAT5 assay) [2]",Kd [3],Kd [4],binding result [3],binding result [4],binding result [5],Binder
,,,,no binding,no binding,no binding,"Fc heterodimer without a fused IL-2 moiety (heterodimer name: 260:261) (other, negative control; also called control Fc protein with no IL-2 fusion) chain 1: ESKYGPPCPPCPAPEAAGGPSVFLFPPKPKDTLMISRTPEVTCVVVDVSQEDPEVQFNWYVDGVEVHNAKTKPREEQFNSTYRVVSVLTVLHQDWLNGKEYKCKVSNKGLPSSIEKTISKAKGQPREPQVYTLPPSQEEMTKNQVSLWCLVKGFYPSDIAVEWESNGQPENNYKTTPPVLDSDGSFFLYSRLTVDKSRWQEGNVFSCSVMHEALHNHYTQKSLSLSLGK chain 2: ESKYGPPCPPCPAPEAAGGPSVFLFPPKPKDTLMISRTPEVTCVVVDVSQEDPEVQFNWYVDGVEVHNAKTKPREEQFNSTYRVVSVLTVLHQDWLNGKEYKCKVSNKGLPSSIEKTISKAKGQPREPQVYTLPPSQEEMTKNQVSLSCAVKGFYPSDIAVEWESNGQPENNYKTTPPVLDSDGSFFLVSRLTVDKSRWQEGNVFSCSVMHEALHNRFTQKSLSLSLGK"
0.7 nM,< 1 pM,503 nM,8 µM,,,,"Fc-IL-2v heterodimer 92.46 (hIL-2v_Δ1-5_L72G_C125S) (Fc fusion, hIgG4 knob-in-hole Fc heterodimer, one IL-2v on the knob chain) chain 1: ESKYGPPCPPCPAPEAAGGPSVFLFPPKPKDTLMISRTPEVTCVVVDVSQEDPEVQFNWYVDGVEVHNAKTKPREEQFNSTYRVVSVLTVLHQDWLNGKEYKCKVSNKGLPSSIEKTISKAKGQPREPQVYTLPPSQEEMTKNQVSLWCLVKGFYPSDIAVEWESNGQPENNYKTTPPVLDSDGSFFLYSRLTVDKSRWQEGNVFSCSVMHEALHNHYTQKSLSLSLGGGGGSGGGGSGGGGSGGGGSSTKKTQLQLEHLLLDLQMILNGINNYKNPKLTRMLTFKFYMPKKATELKHLQCLEEELKPLEEVLNGAQSKNFHLRPRDLISNINVIVLELKGSETTFMCEYADETATIVEFLNRWITFSQSIISTLT chain 2: ESKYGPPCPPCPAPEAAGGPSVFLFPPKPKDTLMISRTPEVTCVVVDVSQEDPEVQFNWYVDGVEVHNAKTKPREEQFNSTYRVVSVLTVLHQDWLNGKEYKCKVSNKGLPSSIEKTISKAKGQPREPQVYTLPPSQEEMTKNQVSLSCAVKGFYPSDIAVEWESNGQPENNYKTTPPVLDSDGSFFLVSRLTVDKSRWQEGNVFSCSVMHEALHNRFTQKSLSLSLGK"
